Consider 17 sequences from a protein production outcome set (Wang et al. 2014).

The nature of the data set: label from the status in PepcDB records.
In the case of “VQRCVIIQKDQHGFGFTVSGDRIVLVQSVRPGGAAMKAGVKEGDRIIKVNGTMVTNSSHLEVVKLIKSGAYVALTLLGSS”, the protein production entry was “not failed”.
For “MISVVGAGGKTSLLFWLAELLQASGRRVLITTTTHMFMPTSHWPVVFCRDPAMLPHASLTSPISFCFHSWKANQGKVQGFTPEAIDALVQRPECDVILIEADGSRGMPLKAPDEHEPCIPKSSCCVIAVMGGHTLGAKVSTENVHRWSQFADITGLTPDATLQLSDLVALVRHPQGAFKNVPQGCRRVWFINRFSQCENAIAQSELLQPLQQHDVEAIWLGDIQEHPAIARRFVNLEHHHHHH”, the protein production result is listed as “not failed”.
For “MLEKIFNSLCSLVPKRYNMKEETNIVGIYNEHYLLSEKSNLVGALKLEGISYLSLDDKEIAQKFNERILALNEIVDGVHFKIVVKRRKIFMHHEYTQEEISNPFALEVINLWEQGVEDVYQNFYYLIFETKNDSIKGYLERFKKKITTNELENIQENNRQDEVKYQENYFIGFDNFNLLDKSKILYSIINNVKNMLSGLFVEKIDANSLLNFYAEYINGVPSEYTFARGRLHDGMINSDVHFKKDFFTHIHNGKEIFKRFISIKTYDIDKIVSTALSSVLHLSLEFDVILNIDNIPKAKAEKRIETKRKRANKSIRVEIDELNDMIKTDRVLMQEISLNILVHAKTKTDLDSACIEITNLLKQKGIVSTQESIGMLPMFFSFFPNRNRLNFRKRLLSSQNIASLIILEKQNCGFSRNSWGDRHLTIFRNQDKSPYLFNFHAYEAKRKNDMVSGHTIIFGGTGAGKTTLIEFLITNCFKYEDLSILALDRNNGMRVMTEFLDGQYNDSNDFYINPFSLKDTSANCTFLVSWLAFMLNIDEDTKDEKEKKTLSALSKTIRVCYNNITKQGGAIFKLRDFKDTLEIDYLDSKDILEKESSKDLYKHSTDCLDFAKKLSVIDMDALSSSKKDFNLAVLYLFYKVMNRAKLENKPFYIFIDEAKSVIENPIMLAKIKDTLAQARKLNGVLTLAFQDINQLDGVEGAKSIIENAAQVILYPTNNFEKLESYGILLSPIEKSFLNKTPLNARQVLVKNLLTQSSVFLEINLEKLNSTSKKFLRAYNSSASSVFELETLKKDNPKDYKEIYLTKE” the value was “failed”; for “MQRLQASLERRQVGIYFAAMALGAVLAWHRPGLQVGEATLNLMLAGMLLATFMQVPLAGWRATLPGMRFLGVLLSVNFVLVPALVWGLAALLPADPMIRLAVLLVLLAPCIDYVVTFAQLGRADARALLAATPVLLCGQMLLLPLYLNVMLGSDAAALIRPGPFVQAFVWLIALPLAAATGVQWAAARSAAWRGAASVVGLLPVPATALVLATIVAAVAPRMALAGEAVSRVVPVYLLFAVIAPAAGWLAARRARLAAPQARAVAFSAGTRNSLVVLPLALAVPGGVPLLPALIVAQTLVELCAELLYVRVFGRAGKDRAGEG”, “failed”.
To “MLSRLRHRLLAVAAAAGLTGALLSFGAAPPADAAVPATIPLKITNNSARGDAVHIYNLGTSLTTGQQGWADENGTFHAWPAGGNPPTPAPDASIPGPAAGQTKTIRIPKLSGRIYFSYGQKLDFRLTTGGLVQPAVQNPSDPNRNILFNWSEYTLNDGGLWLNSTQVDMFSAPYTVGVQRADGGVTSAGQLKAGGYRGVFDALRAQPGWGGLIQTRPDGTVLRALAPLYGVETGALPASVMDDYINRVWQKYTTTTLTVTPFGDRPDTKYFGRVSGNVMNFTNTSGAVVTSFQKPDASSVFGCHRLLDAPNDQVRGPISRTLCAGFNRSTLLSNPNQPDPSAANFYRDPVTNHYARIIHERMADGKAYAFAFDDVGNHESLVHDGNPAEARLTLAPLDLEHHHHHH” belongs “not failed”.
For “MKKRYKNPEKSGSCGNFIQAIKMTDKVQPLESLSKKPEEPKIVVNLRRIKRKIMVMSGKGGVGKSTVAANLAVGLALRGHRVGLLDCDIHGPTVPTIFGLESARPGVSEEGILPIEVLPNLSVMSIGFLLENKDSPIIWRGPAKMGAIKQFLEEVFWGALDFLIIDLPPGTGDEPLSVAQLIPNCDGSVLVTTPQDVALISVRKSITFSEKLNVPIIGLVDNMHGLICPHCGKPIEVFGSGGVEKASKDFNIPILARLPIEPGVAEMEDRGTVVQDQLKHGTEWQKNFDNVVDAVEKILEKELEHHHHHH” the value was “not failed”; for “MLIKSIKLTNILSFGEAAETIELRPLNVVIGPNGSGKSNLIAAIELFRALPKDAPAFFRREGGIHDWLWKGGEIPPVATIESVFDEKGPLSGLRYALRFTVVGQHFEIIEERIEEEAAEGAQTPPPYHFKDGRGALRALLANEGEIKAWSFVIPSEIDPTQSILAQRKDPHQYPELTSLGAVLPTMRCYREWTMGPQSPPRQDQKTDLRNDYLDPYGAGNLALVLQRLGNKPALKKRFLEALRLLYEGIDDYGVTIEGGTSQIFFHEGGRFTIPASRLSDGTLRYLCLLAILLDPAPPPLLCIEEPELGLHPDILPTLADLLKEASERTQVIVTTHSDGLVDAMTDRPEAVLIAEKNENGTTLTRLDGETLKPWLAKYRLGELWTRGGIGGTRWLEHHHHHH”, “failed”; for “MAVTRRLLMAVVGLFSLLVYFTAAYVGYLLLLPVWDSRPSPLMAALFVLGTAIALGVVNYWAATAQLKRSLNAVELPRARAPEAYHRLDALVDQMNVETPTLLLAELPVPNAFAIGGGTGTIVVDRRLFRLLSAAEFEGLLAHELAHLETRDALVQTVAYSFVQTLVGLIGLALFPIVVLTGGIARSLALLRGDPSSWSRSWLGRAQRYSLQVVAGLGFAVTLLLLGYSRRRELAADDRAVEITGNPVGLARALAKIEQASTPDPGLLRQVYVHSEADNELSRLLSTHPPIDERMQRLQDRAQYGNFTKSSERPSSRR”, “failed”.
As to “KFAYKVGIGLEVPFANTNIWSFQTGLNFISKGVKGDGVTDAWDVVDVTINQLYLELPLMVGARIHTASNFDLLFKGGPYLAYGVGGKTKIDGVSEKADTFGDDGLKRFDAGLGLGVAFEFGNIVVGVETGTSFTKVASGVSAHNLSALATIGYKF”, the protein production entry is “failed”.
Consider “MSTATLSGQSPSAQRRPMTREERRVIFASSLGTVFEWYDFYLYGSLAAIIAQHFFSGVNPTAAFIFALLAFAAGFAVRPFGALVFGRLGDLVGRKYTFLITIVIMGLSTFLVGVLPSYASIGIAAPAILIILRLLQGLALGGEYGGAATYVAEHAPHGRRGFYTSWIQTTATLGLFLSLLVILGVRTFMGEEAFKDWGWRIPFLISVVLLGISVWIRLQLNESPTFKRMKEEGKGSKAPIAESFGQWRNLKVVILALLGLTAGQAVVWYTGQFYALFFLTQSLKIDSNTANIMIAIALLVGTPFFVLFGALSDRIGRKPIIMAGCLIAALTYFPIFKGLTHYANPALEKAQATAPVTVIADPATCSFQFNPVGTASFTSSCDVVKSFMARNSVNYENQSAAAGSVAKVMIGNDEFASFDGKGLAPAEFKTKATELDKALTAAIRSHGYPAKADPAQTNYFMVVVLLTLLVIYVTMVYGPIAAMLVEMFPTRIRYTSMSLPYHIGNGWFGGFLPPVAFAVVAATGNIYDGLWYPIIIAVMTLVIGTLFVRETKDNDINA”, for which the protein production result was “not failed”.
For “MASFPHPGSVTVCEINRDLITAQNLSDERAQETYGKVLGMVFSPVSFDSTPSSLQENEGQENGDKASGESKGLVATLQMKVADSLKQILQPTDVTLLSEIDLQGVSWHQGKHIIAFISGANQVTIRDYEDKDEKEPCILTSDSQRNVKALEWRPNGGKSLSIACRGGICIWAASYPGNMALVRSGGSALRGSLSRGSGTRWILVDFLRCQNDEQISALSWSPCGRYLASASYDSSSFTIWDVSQGAGTPIRRGLGGISMLKWSPTGDYFFAARFDGTFCLWETNTWTSEPWSLSSGSGSVTGAIWDPEGRFILISFSKSSTLGSVHFSSKPPSLDAHLLPVELPEIASLTGCEGIEKIAWDASGERLAVSYKGGDENYKGLIAIYDTRRTPIVSASLVGFIRGPGENPKALSFSFHDKFKQGPLLSVCWSTGFCCTYPLIFRSHVLP”, the protein production entry is on record as “failed”.
On to “MAISQMKKLAMVFEKDYLDLVLKTLQQSQLVEVRDMKQLKHWQDAFNKGNVKLPQIVQYDLTHQKPLLDDEALQYLLQSQQELENGLASLSAFLPPIGKLTALRQKTPSLSFKQFEERHRQQAAQTALKMMSQKIERLEQLQSKIDQLTEYCQELEKWRSLTVLPQDLAQFHFLSARVGTIPSTANNHFYHQLKQHKGLFIEEVYHTEFEYGLVLFWQAQDTIHLQKYQFKPLLYKEQLLPSEQLRINKELLTNWLAEKDSLLKELRQSQKILAQLQVEIDYVLSQYQRQQTKKQLLGTRHLIALEGWIEADSVNQLKGLMTKTLGDMFYLDSYDVTPDDWEDVPIKLRNHRYIAPFELVTEMYALPKYQEKDPTPFLAPLYLTFFGMMVADLGYGLLLYAVTLAALVFFNLQKTSKRLVTFFNILAISVAIWGLIYGSFFGFDLPVALLSTKTDVITILVVSLLFGFVTLIFGLLLGAWQQVRMKAYATAYTSSLAWTFILLGLLLFILGKNVSGLAYLSVIGKWLALGNAFGILVVSLLKSKSLLGLGSGLYNLYGISSYLSDLVSFTRLMALGLSGASIGAAFNMIVGIFPPVTRFTVGIFIFILLHAINIFLSMLSGYVHGARLIFVEFFGKFYEGGGKAFNPLKLADNYVNVNEETDLEDN”, for which the protein production result is “failed”.
On to “MKSKNSLLLTTVFTLLVTITTSNVFAAETATVKADENSTDKKNVSKKSYRVSKKVPAMRNRVYSQLSRAQQLADDGDKIEGFEVLAEVEDRLNSLNSYERAMLFNFYGFMYYANEDITLAVDSFNKVIAETAIPDSLIISTLYSLAQLSMQQQHYKEALDYLTQWREINAKELTGTQEMLFAQVYYQDKDFVNSLKHSEMAISLVEAKNKHPKENWLTLQRATYYELKQPKQVTKVMEKLIRLYDKPQYWLQLSSMYGEIGEEDKQMAVMEAAYQAGYITKASDILTLSQLYLFHGAPFKSAAVLEDSIAQGSIFADEDNLSMLARAYLTAKEYDKATKVLVRVSDIAQSGKHDALLAQTYLNTEQWQAAINSSTLALARYAKHKENKGNQVNDIANMHLILGMANFNLKKFERSLTSFAKAAQFTSTKKTALQWGKYVEREQQHHKVQLAMLN”, for which the protein production result is given as “failed”.
To “MRKVLSFSAFLIIGLLLSQYLPLLAGEGYATVKIVSNILLYICLSFIMINVGREFEVDKTRWRSYAGDYFIAMATAAMPWFLIAIYYVFVLLPPEFWNSWEAWKENLLLSRFAAPTSAGILFTMLAAIGLKSSWIYKKIQVLAIFDDLDTILLMIPLQIMMIGLRWQLIVVVFIVFLLLSLGWKQLGRYNWRQDWKAIMGYSVLVFVATQAVYYFSKQLYGEEGSIHIEVLLPAFVLGMIMKHKEIDTPVEHKVSTGVSFLFMFLVGMSMPHFIGVNFAETHAGTHSVTGSQEMMSWGMIALHVLIVSLLSNIGKLFPVFFYRDRKFSERLALSIGMFTRGEVGAGVIFIALGYNLGGPALVISVLTIVLNLILTGIFVLWVKKLALRSYTT” belongs “failed”; to “MAAAVPQRAWTVEQLRSEQLPKKDIIKFLQEHGSDSFLAEHKLLGNIKNVAKTANKDHLVTAYNHLFETK”, “not failed”; to “MVKLNSNPSEKGTKPPSVEDGFQTVPLITPLEVNHLQLPAPEKVIVKTRTEYQPEQKNKGKFRVPKIAEFTVTILVSLALAFLACIVFLVVYKAFTYDHSCPEGFVYKHKRCIPASLDAYYSSQDPNSRSRFYTVISHYSVAKQSTARAIGPWLSAAAVIHEPKPPKTQGH”, “failed”.
For “MRAGSGQCTGAAMDRLTEMEAFAMVVDQGGFTDAARKMGISKSAVSKHVSALEARLGARLLNRTTRRVSPTEIGLAYYDRARRVLTDAGEADALVTSMQTAPSGHLRLSVATDFGVALLAPILAEFLLDYPDITVTMVLNNRSVELISEGFDMAIRVGDLEDSSLRARKLTETTRRMIASPGYLQRHGRPMKIDDLTDHRLLYHSTQAHGNVWRLLSPSGEPRQVRAPGFLTVNDGHSLLKAAVSGLGIAHLPEFLFAEAMRAGLVEEVLPDLPVETLGIHAIYPAGRFTQPKVRAFIDFLVRRFLEKGPIGN” the value was “failed”.
